Results published in PMC4087167 (Cell, 2014).

B1: GRLBD(F602S) (domain or fragment, UniProt P04150 521-777, looked up)
chain: VPATLPQLTPTLVSLLEVIEPEVLYAGYDSSVPDSTWRIMTTLNMLGGRQVIAAVKWAKAIPGFRNLHLDDQMTLLQYSWMSLMAFALGWRSYRQSSANLLCFAPDLIINEQRMTLPCMYDQCKHMLYVSSELHRLQVSYEEYLCMKTLLLLSSVPKDGLKSQELFDEIRMTYIKELGKAIVKREGNSSQNWQRFYQLTKLLDSMHEVVENLLNYCFQTFLDKTMSIEFPEMLAEIITNQIPKYSNGNIKKLLFHQK

What was measured:
Human HOP = Human HOP (human, UniProt P31948 1-543); test: pull-down
Human Hsp90α [1] = target: T1, Human Hsp90α (human, UniProt P07900 1-732); test: pull-down
Hsp90(D93N) = Hsp90(D93N) (human, UniProt P07900 1-732, D93N); test: pull-down
Hsp90(E47A) = Hsp90(E47A) (human, UniProt P07900 1-732, E47A); test: pull-down
Human Hsp90α [2] = target: T1, Human Hsp90α; test: cryo-EM structure
GRLBD(F602S) = target: B1; test: pull-down

| binding result (Human HOP) | binding result (Human Hsp90α [1]) | binding result (Hsp90(D93N)) | binding result (Hsp90(E47A)) | binding result (Human Hsp90α [2]) | binding result (GRLBD(F602S)) | Binder |
| --- | --- | --- | --- | --- | --- | --- |
| binds | binds | binds | binds | – | – | B1 |
| – | – | – | – | binds | – | MBP-GRLBD(F602S) (domain or fragment, UniProt P04150 521-777, looked up) VPATLPQLTPTLVSLLEVIEPEVLYAGYDSSVPDSTWRIMTTLNMLGGRQVIAAVKWAKAIPGFRNLHLDDQMTLLQYSWMSLMAFALGWRSYRQSSANLLCFAPDLIINEQRMTLPCMYDQCKHMLYVSSELHRLQVSYEEYLCMKTLLLLSSVPKDGLKSQELFDEIRMTYIKELGKAIVKREGNSSQNWQRFYQLTKLLDSMHEVVENLLNYCFQTFLDKTMSIEFPEMLAEIITNQIPKYSNGNIKKLLFHQK |
| – | binds | – | – | – | binds | Human p23 (natural protein, UniProt Q15185 1-160, looked up) MQPASAKWYDRRDYVFIEFCVEDSKDVNVNFEKSKLTFSCLGGSDNFKHLNEIDLFHCIDPNDSKHKRTDRSILCCLRKGESGQSWPRLTKERAKLNWLSVDFNNWKDWEDDSDEDMSNFDRFSEMMNNMGGDEDVDLPEVDGADDDSQDSDDEKMPDLE |
